The term IC50 denotes the concentration needed to halve the response being measured. Higher therefore signals a need for much substance.

Test [1] addresses SARS-CoV-2 S1-His protein (SARS-CoV-2). The test can be described thus: ELISA. (In an ELISA, binding on a coated surface is turned into a signal by an enzyme label.)
Another test addresses WT RBD-His (SARS-CoV-2, UniProt P0DTC2). The test can be described thus: ELISA.

B1: 2B11 monoclonal antibody (full-length human IgG1) (antibody, V domains shown)
VH: EVQLVESGGGLVQPGGSLRLSCAASEITVSSNYMNWVRQAPGKGLEWVSVIYSGGTTYYADSVKGRFTISRDNSENTLYLQMNSLRAEDTAVYYCARDLMEVGGMDVWGQGTTVTVSS
VL: LPVLTQPPSASGTPGQRVTISCSGSSSNVENDNVNWFQQQVPGSTPKLVIYNDRLRPSGVPDRFSGSKSGTSAYLAISGLQSEDEADYYCVAWDASLQSYVFGTGTKVTVL
With B1, the IC50 was 0.383 µg/mL in test [1] and 0.589 µg/mL with WT RBD-His.
